# The domain aggregation screens of Martell et al. (2025)
# Assay: soluble fraction after stress (log2 fold change); higher = more stays soluble; pooled small domains, quantitative proteomics
# Conditions: stress: 75 degC
# 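Note: 20 min heating vs room temperature control held 20 min.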
row,Sequence,soluble fraction (log2)
1,HMSYFNEYEVGDTIRVVNGPLADQISTITAIDKEKGLVNISTVFFGRENNVQVSINDIEKYN,0.0153
2,HMSYGDLTGRTVVITGASKGIGARASRVLAQAGASVVGLARSVDELTALKYDLENDGLSFDFG,≥ 1.04
3,HMSYKYYSTERPLMPGSFPKPQGNTVLNIENFNDRSYVGKIGREAWGFIEYEKPISPVLLDDYELVAA,-0.235
4,HMSYLELENLAEDIKATYDNLSTDLREVFRLSDIEGLSYEEISNKMNIPIGTVRSRLHRARETLLRIFNN,-1.39
5,HMSYPTAVTQTTLNVRTGPGTQYERLGAFVENTEVIVLTRQPEWIQVRGMSGDKAIIGWVSARYLQMNP,-2.21
6,HMSYQNKLNYLINAFGGADNFQKLLGVGPSAISNYKSRKHLPLNQAKRLSKIAPQFGFSLDPHSLQIST,-0.856
7,HMSYQSYDKVVGDTFFEANLKAESKFGKGNFEIISTRRVKHPIYLGFGHKELVELTIGIHDP,-1.33
8,HMSYTAYLSQELGDMSREIQSELLKKGYNGSSSFTIVRTYMGSSVKFSVYNANNGELITSKTINM,-2.9
9,HMSYTDIILKMSNVNFLTKVNFTNSEKNKNIKNGNFLIKKGKNRITAAFDYKDNELVISKSNLRNTFL,-1.18
10,HMTAEVIYVDVGGEVNQPSVVELTDGSRVTDAIAAAGGLTEKADLTDINRAAFVSDGEKIFIPSQEE,0.4
11,HMTAFAGLTPRERDLLELIAQGRDNAQIAATLGVSDKTVRNHITHIFAKLEVETRAQAIVLARNAGFGRA,-1.12
12,HMTAGYFTRGSHQDEVLRIQGTPSGVNKYSDHEVWNYGLSSVDISLRDRRVTEWNNISGNLKV,-0.149
13,HMTAKRELILRVFMDSNGKLLSIDDVFMEMRKKRSHRTSKMTVKRAIDLLVDLGLLKEVLFDDDNIKYEYV,-1.26
14,HMTALISGNKAMQMLELSRHSFEKIVKDGLLSIVHEGDKKYYEIGEVEAFMGSDTYKELVNGV,0.449
15,HMTALSIGTVVRFTGDRHYISSTGDTGYPASPGLAKITSINPGSKHPYHLIHIDNTSNVYGWVNKQDIIT,-1.17
16,HMTAQLSITLNGETRRAAAGSIADLVRSLELDPAKVAVERNGLIVPRSTLAEVALGDGDVLEIVHFV,-1
17,HMTASTLSYSKFNEQVVQNQVRKVTFQGEQVKGELISGQTFTTTVPANDTTLWPMLKAHNVDTAVTAA,0.186
18,HMTASVTDAMFELIDELPKLGKTSFRQLTADLVDRLQVVVTFLAVLELYKQGHVELDQSERFGDITVVWTG,0.208
19,HMTATIEEVNELTQSARVNINVPYAAKDEAKAYGAKWDDVERTWYTTGENYAQNKDFFDGFNPTAS,0.583
20,HMTATWLTYYRIKAGLTQKRLAELAGLNIRQVQKIENGETLAGNTTAKNLLALADALGIDPHKL,-2.15

row,Sequence,soluble fraction (log2)
1,HMTAYENSIPLNWVIQKGDAKGLPLSANTARLLIDIVGIDLMDLDHELEKISLYLSGESITEEMIKEHIRG,-0.709
2,HMTDAELDLLTPREQEVLQLIARGYLYKEIARRLGISVKTVEAHASSVLRKLQLSTRHELSHWAAQRH,-0.0813
3,HMTDAYEVLDLNREASDEEIKKRYRELIREHHPDTLIAKGVPQEFVDLANDKMAAINAAYDRIEKDRGL,0.56
4,HMTDEEKENLREKMLEAGFPLLKQYGMTHTSVAKITQAAGIAVGTFYSFWKNKEAYMADLIGYHRR,-1.27
5,HMTDITSAITRLNKYNKSGTPLTIDSVTPEALQTLQAKVSSAFEIGAVNQQTYDDVTKDIATLQQYLSSA,0.378
6,HMTDIVPNLIGKSLKDAIQSVEKSNLKAIFDGHGIVVSQQPRPGSPIPARKIMKVTLSPDYR,-0.13
7,HMTDKLEEEAKKKAMEDALADEMNISKTIVHDGIRELARIGFLDVISRKGIYVADYTFTGNLETLLAVIRY,-0.848
8,HMTDLDDFAARLKTLTDGRASTPRLRDGVMMLSLDVGGLGPDQRDGLIAAIREGGLTVPGVSDVRIVMT,-0.125
9,HMTDLEDDEKKVYRLIVESGEGIDFDTLSERSGFSATELPSILLFLMMKEMIDELPGKIYRYSE,-0.0725
10,HMTDMYLTYQELRHLGVSQNLISMWKSRKSIDFHMLGGTLYVRYMSIPEQTRSKLALQNVERVYNSRE,-2.6
11,HMTDRINIGDVVTIISKDREDSQIVYMRYHKGKLSILGELILNKTKNDTVDFKGRTYDIATIEKS,-2.22
12,HMTDVHFIDVPVSEGHPWIGLTVKDLNLPPGTLLVFLNHPGEKSTVPNGDTVLREGDVLVLGATAYAG,-0.384
13,HMTDYKTNLQEFLQQDGEVEIEYKLLAEVGPSHARQFEVDVMMGDRVLGSGVGRNKKAAEQAAAKVALSKL,-0.0613
14,HMTDYVPTIGTKISKDFGSKGYFEGEVVSGPHNVTVEGDNMVVWKVQYEDGDREEMTASEIAHWKA,-0.104
15,HMTEAIDVPNLVGQNYSDVKSNSSYKFNWDIINVYDSGKPEGEIIKQEPEAGSKKVKENAVITLTVN,0.538
16,HMTEDNDLETIAYDILKERNLNNININVKNGVLNIYGKTETLKEKREIEKILSSLNVSKINNLIKI,0.258
17,HMTEDQDWAIFKQKLKAQTEIDLDLYKEPQMKHRIKNLIQNAGFDSYVQYFDYVYLNQDRLAAFLENLTV,-0.535
18,HMTEEELLERLDAVITEYKGKPGALIPVLQLAQGIFGYLPEVALKHIARQLDKPYSEVAGVVSFYSFFTT,0.291
19,HMTEFDVIMKSFGSEKIKVIKEVRAITGLGLAEAKALVEGVPAKIKEQVSKDDAEALKKQLEAVGAEVEL,-0.0848
